Data from publication PMC9860126, “Mechanistic insights into the nickel-dependent allosteric response of the Helicobacter pylori NikR transcription factor”.
Where a chain is given by its changes, count along the chain named.

B1: ureA promoter 32 bp (FA) (dsDNA)
DNA 1: ATATAACACTAATTCATTTTAAATAATAATTA
DNA 2: TAATTATTATTTAAAATGAATTAGTGTTATAT
B2: ureA-perf promoter 32 bp (dsDNA)
DNA 1: B1 DNA 1 with A6T, C7T, C9T
DNA 2: B1 DNA 2 with G24A, G26A, T27A

What was measured:
Details in all cases: protein: recombinant; tags: none stated; chain copies: 4; label: fluorescein on internal thymine (T14 of strand 1); blunt
HpNikR E62A = HpNikR E62A (Helicobacter pylori G27, UniProt A1YSQ9 1-148, E62A); test: fluorescence anisotropy; apo (no Ni); FA: 5 nM DNA, 20 mM Tris pH 7.6, 100 mM NaCl, 3 mM MgSO4, temperature not stated (Ni loading 1.2 eq NiSO4 per monomer at RT). EMSA: 20 mM Tris pH 7.5, 100 mM KCl, 3 mM MgCl2, 0.1% IGEPAL, 5% glycerol, 0.1 mg/ml herring sperm DNA, RT; gel with 800 uM NiSO4 at 4 C
HpNikR N32A = HpNikR N32A (Helicobacter pylori G27, UniProt A1YSQ9 1-148, N32A); test: as above
HpNikR W54A = HpNikR W54A (Helicobacter pylori G27, UniProt A1YSQ9 1-148, W54A); test: as above
HpNikR K48A = HpNikR K48A (Helicobacter pylori G27, UniProt A1YSQ9 1-148, K48A); test: as above
HpNikR E56A = HpNikR E56A (Helicobacter pylori G27, UniProt A1YSQ9 1-148, E56A); test: as above
HpNikR T92A = HpNikR T92A (Helicobacter pylori G27, UniProt A1YSQ9 1-148, T92A); test: as above
HpNikR I127A = HpNikR I127A (Helicobacter pylori G27, UniProt A1YSQ9 1-148, I127A); test: as above
HpNikR Q81A = HpNikR Q81A (Helicobacter pylori G27, UniProt A1YSQ9 1-148, Q81A); test: as above
HpNikR K64A = HpNikR K64A (Helicobacter pylori G27, UniProt A1YSQ9 1-148, K64A); test: fluorescence anisotropy; Ni(II)-bound; FA: 5 nM DNA, 20 mM Tris pH 7.6, 100 mM NaCl, 3 mM MgSO4, temperature not stated (Ni loading 1.2 eq NiSO4 per monomer at RT). EMSA: 20 mM Tris pH 7.5, 100 mM KCl, 3 mM MgCl2, 0.1% IGEPAL, 5% glycerol, 0.1 mg/ml herring sperm DNA, RT; gel with 800 uM NiSO4 at 4 C
HpNikR K140A = HpNikR K140A (Helicobacter pylori G27, UniProt A1YSQ9 1-148, K140A); test: as above
HpNikR GGS = HpNikR GGS (Helicobacter pylori G27, UniProt A1YSQ9 1-148, P59G;N60G;D61S); test: as above

Binder	Kd (HpNikR E62A) [nM]	Kd (HpNikR N32A) [nM]	Kd (HpNikR W54A) [nM]	binding result (HpNikR K48A)	Kd (HpNikR E56A) [nM]	Kd (HpNikR T92A) [nM]	Kd (HpNikR I127A) [nM]	Kd (HpNikR Q81A) [nM]	Kd (HpNikR K64A) [nM]	Kd (HpNikR K140A) [nM]	Kd (HpNikR GGS) [nM]
B1	2600 ± 200	1600 ± 400	6100 ± 1000	no binding	1800 ± 300	2200 ± 200	4000 ± 1300	2000 ± 500	22 ± 2.2	63 ± 5.6	4.6 ± 1.2
B2	4200 ± 700	1900 ± 700	3700 ± 200	no binding	1200 ± 100	2500 ± 400	4000 ± 300	1600 ± 600			
